{"source": "patent US20150118233A1", "key": {"[1]": {"biological_target": "hRSV FTM- NN protein (membrane anchorless form of the Long fusion protein, 70 kDa) (hRSV strain Long)", "assay": "Alphascreen competition: FTM- NN (0.3 nM) bridged by biotinylated Synagis Fab and 101F Fab acceptor beads"}, "[2]": {"biological_target": "F protein of Long escape mutant R7C2/1 (K272E in antigenic site II) (hRSV strain Long escape mutant)", "sequence (chain, as listed by the source)": "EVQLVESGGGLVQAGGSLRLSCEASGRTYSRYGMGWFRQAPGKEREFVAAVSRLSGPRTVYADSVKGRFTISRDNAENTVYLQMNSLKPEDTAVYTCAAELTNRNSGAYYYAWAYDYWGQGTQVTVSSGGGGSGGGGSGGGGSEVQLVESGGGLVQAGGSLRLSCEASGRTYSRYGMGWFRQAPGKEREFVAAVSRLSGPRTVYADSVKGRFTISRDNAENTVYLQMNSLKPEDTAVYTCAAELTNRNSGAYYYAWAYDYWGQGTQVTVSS", "assay": "cell-based or functional assay"}, "[3]": {"biological_target": "F protein of Long escape mutant R7C2/11 (antigenic site II) (hRSV strain Long escape mutant)", "assay": "cell-based or functional assay"}, "[4]": {"biological_target": "F protein of hRSV strain A-2 (hRSV strain A-2)", "sequence (chain, as listed by the source limits assumed)": "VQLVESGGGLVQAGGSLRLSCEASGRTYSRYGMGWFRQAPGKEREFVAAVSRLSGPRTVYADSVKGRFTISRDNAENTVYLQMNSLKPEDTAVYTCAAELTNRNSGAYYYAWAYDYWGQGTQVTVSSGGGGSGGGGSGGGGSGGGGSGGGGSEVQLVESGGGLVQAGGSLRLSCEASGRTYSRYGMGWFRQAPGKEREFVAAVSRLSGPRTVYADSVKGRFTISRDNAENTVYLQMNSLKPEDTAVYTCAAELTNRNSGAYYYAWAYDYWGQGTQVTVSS", "assay": "cell-based or functional assay"}, "[5]": {"biological_target": "F protein of hRSV strain B-1 (hRSV strain B-1)", "sequence (chain, as listed by the source limits assumed)": "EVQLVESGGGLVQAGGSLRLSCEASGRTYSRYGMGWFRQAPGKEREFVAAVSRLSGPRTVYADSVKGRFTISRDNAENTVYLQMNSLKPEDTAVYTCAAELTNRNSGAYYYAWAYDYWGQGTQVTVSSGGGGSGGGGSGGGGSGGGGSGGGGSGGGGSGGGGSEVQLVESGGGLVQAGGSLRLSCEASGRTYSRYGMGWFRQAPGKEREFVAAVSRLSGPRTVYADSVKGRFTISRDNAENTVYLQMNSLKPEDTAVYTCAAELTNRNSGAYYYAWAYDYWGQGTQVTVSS", "assay": "cell-based or functional assay"}, "[6]": {"biological_target": "F protein of hRSV strain Long (hRSV strain Long)", "assay": "cell-based or functional assay"}, "[7]": {"biological_target": "hRSV FTM- NN protein (membrane anchorless form of the Long fusion protein, 70 kDa) (hRSV strain Long)", "assay": "SPR (Biacore T100), FTM- NN amine-coupled, 1:1 Langmuir fit"}}, "note": "pIC50, pKd: −log10 of the molar value.", "data": [{"substance": "101F Fab", "values": [{"measurement": "pIC50", "setting": "[1]", "value": 8.95}]}, {"substance": "Numax Fab (Motavizumab or MEDI-524)", "values": [{"measurement": "pIC50", "setting": "[1]", "value": 10.07}]}, {"substance": "Synagis® (Palivizumab, humanized monoclonal antibody)", "values": [{"measurement": "neutralization of escape mutant virus, IC50", "setting": "[2]", "value": "> 200", "unit": "nM"}, {"measurement": "neutralization of escape mutant virus, IC50", "setting": "[3]", "value": "> 200", "unit": "nM"}, {"measurement": "RSV neutralization IC50", "setting": "[4]", "value": 2.5, "unit": "nM"}, {"measurement": "Neutralization IC50 (first assay)", "setting": "[5]", "value": 2.1, "unit": "nM"}, {"measurement": "Neutralization IC50 (second assay)", "setting": "[5]", "value": 2.9, "unit": "nM"}, {"measurement": "RSV neutralization IC50", "setting": "[5]", "value": 1.7, "unit": "nM"}, {"measurement": "Neutralization IC50 (first assay)", "setting": "[6]", "value": 7.3, "unit": "nM"}, {"measurement": "Neutralization IC50 (second assay)", "setting": "[6]", "value": 6, "unit": "nM"}, {"measurement": "RSV neutralization IC50", "setting": "[6]", "value": 4, "unit": "nM"}, {"measurement": "pKd", "setting": "[7]", "value": 9.19}, {"measurement": "koff", "setting": "[7]", "value": 0.00018, "unit": "s⁻¹"}, {"measurement": "kon", "setting": "[7]", "value": 280000, "unit": "M⁻¹ s⁻¹"}]}]}
